Results from patent publication US8889130B2, “Treatment of osteoarthritis and pain” (Abbvie Inc., priority 2011, dated 2014).

T1: hIL-1α (Homo sapiens, UniProt P01583)
T1 sequence (P01583 113-271): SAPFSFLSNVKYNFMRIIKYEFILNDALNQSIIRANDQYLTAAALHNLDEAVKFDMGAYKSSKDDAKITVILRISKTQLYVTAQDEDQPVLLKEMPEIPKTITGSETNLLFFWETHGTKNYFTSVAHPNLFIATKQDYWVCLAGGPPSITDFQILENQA


Columns and labels:
hIL-1α [1] = target: T1, hIL-1α; experiment: Surface plasmon resonance (Biacore) binding kinetics and affinity to hIL-1α; conditions: antigen hIL-1α; for Kd: KD=koff/kon
Description: (§1) The kinetics of DVD-Ig molecules binding to rhIL1-α and rhIL1-β was determined by surface plasmon resonance-based measurements with a Biacore 3000 instrument (Biacore AB, Uppsala, Sweden) using HBS-EP (10 mM HEPES, pH 7.4, 150 mM NaCl, 3 mM EDTA, and 0.005% surfactant P20) at 25° C. All chemicals were obtained from Biacore AB (Uppsala, Sweden) or otherwise from a different source as described herein. Approximately, 5000 RU of goat anti-human IgG Fcγ fragment specific polyclonal antibody (Pierce Biotechnology Inc, Rockford, Ill.) diluted in 10 mM sodium acetate (pH 4.5) was directly immobilized across a CM5 research grade biosensor chip using a standard amine coupling kit according to manufacturer's instructions and procedures at […]. Unreacted moieties on the biosensor surface were blocked with ethanolamine. Modified carboxymethyl dextran surface in flowcell 2 and 4 was used as a reaction surface. Unmodified carboxymethyl dextran without goat anti-human IgG in flow cell 1 and 3 was used as the reference surface. For kinetic analysis, rate equations derived from the 1:1 Langmuir binding model were fitted simultaneously to association and dissociation phases of all ten injections (using global fit analysis) using the Bioevaluation 4.0.1 software. Purified DVD-Ig samples were diluted in HEPES-buffered saline for capture across goat anti-human IgG Fc specific reaction surfaces and injected over reaction matrices at a flow rate of […]. The association and dissociation rate constants, kon (M-1s-1) and koff (s-1) were determined under a continuous flow rate of […]. Rate constants were derived by making kinetic binding measurements at ten different antigen concentrations ranging from 1.25 to 1000 nM. The equilibrium dissociation constant (M) of the reaction between DVD-Ig molecule and rhIL1α/β was then calculated from the kinetic rate constants by the following formula: KD=koff/kon. Aliquots of rhIL1α/β samples were also simultaneously injected over a blank reference and reaction CM surface to record and subtract any nonspecific binding background to eliminate the majority of the refractive index change and injection noise. Surfaces were regenerated with two subsequent […] injections of 10 mM Glycine (pH 1.5) at a flow rate of […]. The anti-Fc antibody immobilized surfaces were completely regenerated and retained their full capture capacity over twelve cycles. The apparent stoichiometry of the captured DVD-Ig-rhIL1α/β complex was calculated under saturating binding conditions (steady-state equilibrium) using the following formula: […]

hIL-1α [2] = target: T1, hIL-1α; experiment: Tetravalent dual-specific antigen binding by Biacore (sequential antigen injection), hIL-1α; conditions: for Response Unit, 1st antigen hIL-1α: hIL-1α injected as 1st antigen on captured DVD-Ig; for Response Unit, 2nd antigen hIL-1α: hIL-1α injected as 2nd antigen after hIL-1β
Description: as §1
(§2) In addition, tetravalent dual-specific antigen binding of DVD-Ig binding protein was also analyzed by Biacore (Table 14). DVD-Ig binding protein was first captured via a goat anti-human Fc antibody on the Biacore sensor chip, and the first antigen was injected and a binding signal observed. As the DVD-Ig binding protein was saturated by the first antigen, the second antigen was then injected and the second signal observed. This was done either by first injecting IL-1β then IL-1α or by first injecting IL-1α followed by IL-1β for DVD2-Ig binding protein. In either sequence, a dual-binding activity was detected. Similar results were obtained for DVD1-Ig binding protein. Thus, each DVD-Ig binding protein was able to bind both antigens simultaneously as a dual-specific tetravalent molecule. […] Upon the injection of the second antigen, while DVD-Ig binding protein was already occupied by the first antigen, the stoichiometry of both DVD-Igs binding protein to the second antigen (i.e., hIL-1α or hIL-1β was between 1.0 and 1.3. Thus, DVD-Ig binding protein was able to bind two IL-1α and two IL-β molecules. DVD-Ig binding protein was first captured via a goat anti-human Fc antibody on the Biacore sensor chip, and the first antigen was injected and a binding signal observed, followed by the injection of the second antigen.

hIL-1β = hIL-1β (Homo sapiens, UniProt P01584); experiment: Tetravalent dual-specific antigen binding by Biacore (sequential antigen injection), hIL-1β; conditions: for Response Unit, 1st antigen hIL-1β: hIL-1β injected as 1st antigen on captured DVD-Ig; for Response Unit, 2nd antigen hIL-1β: hIL-1β injected as 2nd antigen after hIL-1α
hIL-1β, sequence (P01584 117-269): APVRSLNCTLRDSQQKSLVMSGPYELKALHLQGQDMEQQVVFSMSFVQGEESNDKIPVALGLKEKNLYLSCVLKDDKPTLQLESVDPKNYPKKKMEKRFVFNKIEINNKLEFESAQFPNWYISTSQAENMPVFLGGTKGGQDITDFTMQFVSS
Description: as §1, §2

[3] = hIL-1α injected as 2nd antigen, DVD-Ig already saturated with hIL-1β
[4] = hIL-1β injected as 2nd antigen, DVD-Ig already saturated with hIL-1α

Row | koff (hIL-1α [1]) [s⁻¹] | kon (hIL-1α [1]) [M⁻¹ s⁻¹] | Kd (hIL-1α [1]) [nM] | Stoichiometry hIL-1α:DVD-Ig (hIL-1α [2]; hIL-1α injected as 1st antigen) | Response Unit, 1st antigen hIL-1α (hIL-1α [2]) [Response Unit] | Response Unit, 2nd antigen hIL-1α (hIL-1α [2]) | Stoichiometry hIL-1α:DVD-Ig (hIL-1α [2]; [3]) | Response Unit, 1st antigen hIL-1β (hIL-1β) [Response Unit] | Response Unit, 2nd antigen hIL-1β (hIL-1β) | Stoichiometry hIL-1β:DVD-Ig (hIL-1β; [4]) | Stoichiometry (hIL-1α [1]; saturating binding conditions) | Stoichiometry hIL-1β:DVD-Ig (hIL-1β; hIL-1β injected as 1st antigen) | Molecule
1 | 0.000252 | 73500 | 3.42 | 1.8 | 209 | hIL-1α: 131 Response Unit | 1.2 | 159 | hIL-1β: 137 Response Unit | 1.3 |  |  | DVD2-Ig: DVD-Ig as DVD1-Ig but with linkers ADAAP (light chain) and AKTTPP (heavy chain) (antibody) VH: MQLSGLTSEDSAMYFCVRFPTGNDYYAMDYWGQGTSVTVSSAKTTPPQIQLVQSGPELKKPGETVKISCKASGYTFRNYGMNWVKQAPGKDLKRMAWINTYTGESTYADDFKGRFAFSLETSASTAYLQINNLKNEDTATYFCARGIYYYGSSYAMDYWGQGTSVTVSS VL: PVEADDAATYYCQQNNEDPFTFGSGTKLEIKRADAAPNIQMTQTTSSLSASLGDRVTISCRASQDISNCLNWYQQKPDGTVKLLIYYTSRLHSGVPSRFSGSGSGTDYSLTISNLEQEDIATYFCQQGKTLPYAFGGGTKLEINR
2 | 0.000105 | 37000 | 2.83 | 2.3 | 190 | hIL-1α: 107 Response Unit | 1.1 | 141 | hIL-1β: 75 Response Unit | 1.0 | 1.8 | 1.5 | DVD1-Ig: DVD-Ig binding hIL-1α and hIL-1β; VH/VL of 13F5.G5 fused directly to N-terminus of 3D12.E3 VH/VL, no linker (antibody) VH: MQLSGLTSEDSAMYFCVRFPTGNDYYAMDYWGQGTSVTVSSQIQLVQSGPELKKPGETVKISCKASGYTFRNYGMNWVKQAPGKDLKRMAWINTYTGESTYADDFKGRFAFSLETSASTAYLQINNLKNEDTATYFCARGIYYYGSSYAMDYWGQGTSVTVSS VL: PVEADDAATYYCQQNNEDPFTFGSGTKLEIKRNIQMTQTTSSLSASLGDRVTISCRASQDISNCLNWYQQKPDGTVKLLIYYTSRLHSGVPSRFSGSGSGTDYSLTISNLEQEDIATYFCQQGKTLPYAFGGGTKLEINRR
